Sequences and labels used below:
B1: human LIF (Leukemia Inhibitory Factor), expression host not stated at the place of use (ligand)
chain: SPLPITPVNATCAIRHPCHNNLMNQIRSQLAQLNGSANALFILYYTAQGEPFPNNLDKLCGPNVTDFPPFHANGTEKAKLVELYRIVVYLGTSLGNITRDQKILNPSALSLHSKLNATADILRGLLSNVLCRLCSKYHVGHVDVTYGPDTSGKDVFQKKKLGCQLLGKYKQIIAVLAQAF
notes: species not repeated there) and for the cell assays with endogenous or added human LIF; also called hLIF; Bt-LIF

Experiment [1] addresses T1, recombinant human gp130 (human, UniProt P40189 23-619, limits assumed).
T1 construct: Coated on ELISA plates
T1 sequence (looked up): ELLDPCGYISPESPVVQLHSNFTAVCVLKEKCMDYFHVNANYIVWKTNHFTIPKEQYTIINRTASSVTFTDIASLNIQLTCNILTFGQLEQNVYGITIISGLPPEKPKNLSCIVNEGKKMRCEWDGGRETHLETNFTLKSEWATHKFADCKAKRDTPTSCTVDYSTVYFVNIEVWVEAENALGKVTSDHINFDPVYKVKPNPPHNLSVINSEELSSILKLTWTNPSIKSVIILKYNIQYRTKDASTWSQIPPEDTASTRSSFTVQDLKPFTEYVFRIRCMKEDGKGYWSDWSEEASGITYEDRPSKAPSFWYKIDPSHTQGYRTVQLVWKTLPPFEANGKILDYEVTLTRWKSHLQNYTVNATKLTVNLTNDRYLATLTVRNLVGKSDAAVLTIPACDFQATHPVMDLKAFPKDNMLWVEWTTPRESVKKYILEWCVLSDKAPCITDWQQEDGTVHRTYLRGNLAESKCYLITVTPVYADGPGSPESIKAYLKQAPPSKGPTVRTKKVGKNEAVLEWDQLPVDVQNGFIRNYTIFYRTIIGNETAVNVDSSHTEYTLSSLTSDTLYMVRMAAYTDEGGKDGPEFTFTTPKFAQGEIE
Kind of experiment: ELISA: LIF pre-incubated with B09 and added to a gp130-coated plate; the mAb part is detected with anti-rat IgG-HRP. A general note: An ELISA detects its analyte on a solid surface through an enzyme-linked reagent.

In experiment [2] the target is B1. Kind of experiment: competitive binding assays against LIF.
Experiment [3] deals with T2, human LIF (HEK-293) (human, UniProt P15018 23-202).
T2 construct: Bought recombinant glycosylated protein; also called hLIF (HEK 293); huLIF (mammalian)
T2 sequence (P15018 23-202 limits assumed): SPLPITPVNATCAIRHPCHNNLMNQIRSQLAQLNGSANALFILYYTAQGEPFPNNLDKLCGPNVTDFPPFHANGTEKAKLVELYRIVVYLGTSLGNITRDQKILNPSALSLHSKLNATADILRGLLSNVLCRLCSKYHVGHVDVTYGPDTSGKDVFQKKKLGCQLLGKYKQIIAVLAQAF
Kind of experiment: MSD electrochemiluminescence sandwich assay (Example 23): A4 spot-coated as capture, Sulfo-Tag 7C3 (M017C3) as detection, rhLIF titrated with saturating h5D8.
Description: Quality controls and samples are transferred in triplicate to the coated and blocked MSD plate. […] The intensity quantified by the system is proportional to the amount of bound antibody complexes and is expressed as RLU (Relative Light Units).

The target of experiment [4] is T2, human LIF (HEK-293). Description: MSD electrochemiluminescence sandwich assay: mAb 3 (chimeric rabbit/human A4) as capture antibody, LIF titrated; detection antibody not named in the figure (7C3 in Example 23).
For experiment [5], the target named is B1. Kind of experiment: cell-based or functional assay.
Experiment [6] deals with T3, recombinant human LIFR (LIF receptor) (human, UniProt P42702 45-833, limits assumed).
T3 construct: Soluble analyte in the Octet assay and coated on ELISA plates; also called hLIFR
T3 sequence (looked up): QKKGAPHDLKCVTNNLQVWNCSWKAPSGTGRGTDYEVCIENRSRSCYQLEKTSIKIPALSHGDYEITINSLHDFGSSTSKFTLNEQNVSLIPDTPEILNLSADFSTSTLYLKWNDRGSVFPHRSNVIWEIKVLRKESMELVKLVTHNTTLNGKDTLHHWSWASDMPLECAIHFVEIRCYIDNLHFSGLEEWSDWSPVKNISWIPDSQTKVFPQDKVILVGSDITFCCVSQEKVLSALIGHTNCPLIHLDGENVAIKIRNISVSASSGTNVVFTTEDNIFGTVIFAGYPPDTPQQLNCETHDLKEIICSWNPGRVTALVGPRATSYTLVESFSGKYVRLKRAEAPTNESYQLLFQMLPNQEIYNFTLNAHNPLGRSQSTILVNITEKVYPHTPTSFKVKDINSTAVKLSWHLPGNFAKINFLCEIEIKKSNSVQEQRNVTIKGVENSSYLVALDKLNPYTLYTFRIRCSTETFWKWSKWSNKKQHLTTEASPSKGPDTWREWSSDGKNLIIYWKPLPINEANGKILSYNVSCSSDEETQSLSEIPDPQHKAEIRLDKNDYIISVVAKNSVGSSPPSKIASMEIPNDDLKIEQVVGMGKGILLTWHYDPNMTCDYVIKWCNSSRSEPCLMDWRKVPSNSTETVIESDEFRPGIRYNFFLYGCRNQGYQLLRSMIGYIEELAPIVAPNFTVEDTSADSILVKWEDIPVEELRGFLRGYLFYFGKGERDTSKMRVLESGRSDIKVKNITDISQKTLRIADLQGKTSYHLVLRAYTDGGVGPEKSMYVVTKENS
Kind of experiment: BLI (Octet RED 96), control experiment, h5D8 on AHC biosensor. (In general: BLI is a label-free optical method that tracks binding on a fibre tip over time.)

For experiment [7], the target named is T4, human IL-6 (E. coli) (human, UniProt P05231 30-212, limits assumed).
T4 construct: also called huIL-6 (E. coli)
T4 sequence (P05231 30-212 limits assumed): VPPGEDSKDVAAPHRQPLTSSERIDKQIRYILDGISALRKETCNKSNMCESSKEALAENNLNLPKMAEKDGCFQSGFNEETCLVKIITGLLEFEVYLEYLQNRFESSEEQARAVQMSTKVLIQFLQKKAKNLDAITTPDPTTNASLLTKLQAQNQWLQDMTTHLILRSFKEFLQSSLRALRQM
Description: BLI (Octet), h5D8 amine-coupled on AR2G biosensor, cytokine as analyte.
Description: 9.0.0.26 as follows: Amine Reactive 2ndGeneration Biosensors (AR2G) were hydrated for a minimum of 15 minutes in water. […] Kinetics experiments were then performed with the following Dip and Read steps at 30° C., 1000rpm: vi) 60 seconds Baseline in lx kinetics buffer; vii) 180 seconds Association of appropriate serial dilutions of a cytokine in lx kinetics buffer; viii) 300 seconds Dissociation in 1X kinetics buffer; ix) Three Regeneration/Neutralization cycles alternating between 10mM glycine pH 2.0 and lx kinetics buffer respectively (5 seconds in each for 3 cycles).

The results in this text go back to patent US20210190798A1 (AstraZeneca / MedImmune, published 2021).

For the molecule B1, the binding result in experiment [1] is listed as “binds”.

B2: A4 (rabbit monoclonal anti-LIF capture antibody) (antibody, V domains shown)
VH: EQLEESVGDLVKPGASLTLTCTASGFSFSGLYYMCWVRQAPGKGLEWIACIWTGSTDSTYYATWAKGRFTISKTSSTTVTLQMTSLTVADTATYFCARGGGVPGDGYALWGPGTLVTVSS
VL: ELVMTQTPASVSEPVGGTVTINCQASEDISSNLVWYQQKSGQPPKLLIYDASMLASGVPSRFKGSGSGTQFTLTISDLECADGATYYCQSYYVASSSYFVNGFGGGTEVV
notes: Rabbit monoclonal antibody; also called capture antibody A4; rabbit A4 monoclonal capture antibody
For the molecule B2, the binding result in experiment [2] and in experiment [3] was “binds” throughout.

B3: mAb 3 (antibody, V domains shown)
VH: EQLEESVGDLVKPGASLTLTCTASGFSFSGLYYMCWVRQAPGKGLEWIACIWTGSTDSTYYATWAKGRFTISKTSSTTVTLQMTSLTVADTATYFCARGGGVPGDGYALWGPGTLVTVSS
VL: ELVMTQTPASVSEPVGGTVTINCQASEDISSNLVWYQQKSGQPPKLLIYDASMLASGVPSRFKGSGSGTQFTLTISDLECADGATYYCQSYYVASSSYFVNGFGGGTEVV
notes: also called chimeric rabbit/human A4 antibody
For B3, in experiment [4], the binding result was “binds”.

B4: h5D8 (humanized 5D8 antibody comprising H2 and L2) (antibody, V domains shown)
VH: QVQLQESGGGLVKPGGSLRLSCAASGFTFSHAWMHWVRQAPGKGLEWVGQIKAKSDDYATYYAESVKGRFTISRDDSKNTLYLQMNSLKTEDTAVYYCTCWEWDLDFWGQGTMVTVSS
VL: DIVMTQTPLSSPVTLGQPASISCRSSQSLLDSDGHTYLNWLQQRPGQPPRLLIYSVSNLESGVPDRFSGSGAGTDFTLKISRVEAEDVGVYYCMQATHAPPYTFGQGTKLEIK
notes: also called H2L2; G (H2L2)
Consider B4, for which the “IC50 for biological inhibition (pSTAT3, U-251 cells, serum starved)” value in experiment [5] was found to be 490 picomolar. Further, the binding result in experiment [6] and in experiment [7] was “no binding” throughout.
